Here are results for four molecules from patent US20140087995A1 (published 2014).

Numbered stars: 1 amine (or outer) side, 2 acyl side, 3 side chain; on linkers, the order of the positions; unused ones are H or OH. Bridge positions count the residues as written; N and C are the ends. * marks the point of attachment. C20 diacid = O=C(O)CCCCCCCCCCCCCCCCCCC(=O)*; γGlu = O=C(O)[C@H](CCC(=O)[*:2])N[*:1]

The target in assay [1] is T1, rat calcitonin receptor (rat, UniProt P32214 25-516).
T1 construct: whole, on cells; Used as membranes prepared from the transfected cells; also called rCTR; rat calcitonin (a) receptor
T1 sequence (looked up): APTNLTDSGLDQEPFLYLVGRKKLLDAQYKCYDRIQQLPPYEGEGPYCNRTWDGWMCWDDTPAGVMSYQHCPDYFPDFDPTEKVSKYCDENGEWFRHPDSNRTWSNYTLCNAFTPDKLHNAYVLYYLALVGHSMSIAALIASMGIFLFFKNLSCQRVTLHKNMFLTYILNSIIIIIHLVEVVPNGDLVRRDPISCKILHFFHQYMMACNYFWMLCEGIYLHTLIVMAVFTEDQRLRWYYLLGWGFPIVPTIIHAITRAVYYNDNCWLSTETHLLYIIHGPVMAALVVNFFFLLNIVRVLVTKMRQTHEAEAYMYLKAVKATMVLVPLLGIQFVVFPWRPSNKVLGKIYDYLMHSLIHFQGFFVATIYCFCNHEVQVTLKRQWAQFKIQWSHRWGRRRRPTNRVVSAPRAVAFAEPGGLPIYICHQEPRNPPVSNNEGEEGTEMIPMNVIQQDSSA
The assay can be described thus: ratio IC50 rat calcitonin receptor / IC50 rat amylin receptor (Assays VIII and VI).

In assay [2] the target is T2, human calcitonin receptor (human, UniProt P30988 25-474).
T2 construct: whole, on cells; Used as membranes prepared from the transfected cells (Assay VII); also called hCTR; hCT
T2 sequence (looked up): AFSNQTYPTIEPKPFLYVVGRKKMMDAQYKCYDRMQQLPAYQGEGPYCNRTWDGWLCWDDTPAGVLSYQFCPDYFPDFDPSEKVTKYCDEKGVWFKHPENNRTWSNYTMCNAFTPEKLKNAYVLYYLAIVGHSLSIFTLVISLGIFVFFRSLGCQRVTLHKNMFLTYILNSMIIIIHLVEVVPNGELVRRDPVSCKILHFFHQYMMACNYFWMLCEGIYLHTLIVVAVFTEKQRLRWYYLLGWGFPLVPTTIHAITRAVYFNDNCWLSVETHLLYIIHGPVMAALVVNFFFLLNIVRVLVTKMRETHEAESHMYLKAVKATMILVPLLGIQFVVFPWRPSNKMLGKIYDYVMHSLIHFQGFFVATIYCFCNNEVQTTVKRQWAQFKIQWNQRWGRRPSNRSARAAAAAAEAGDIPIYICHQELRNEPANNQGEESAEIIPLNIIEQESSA
As to the kind of experiment: ratio IC50 human calcitonin receptor / IC50 human amylin receptor (Assays VII and V). The protocol:
The resulting pellet was resuspended, homogenized and centrifuged (20.000 rpm, 15 min) in a buffer containing 20 mM Na-HEPES and 0.1 mM EDTA (pH 7.4, buffer 2). The resulting pellet was resuspended in buffer 2 and protein concentration was measured (BCA protein Assay, Pierce). The homogenate was kept cold during the whole procedure. The membranes were kept at −80° C. until use. The assay was performed in a 384 well Optiplate (PerkinElmer) in a total volume of 40 ul. Membranes were mixed with SPA beads. Final concentration of membranes 35 ng/μL final and SPA beads was 0.05 mg/well. Test-compounds were dissolved in DMSO and further diluted in assay buffer (50 mM Hepes, pH 7.4, 1 mM CaCl2, 5 mM MgCl₂, 0.1% OA and 0.02% Tween20). […] The final mixture was incubated with shaking at 400 rpm for 120 min at 25° C. prior to centrifugation (1500 rpm, 10 min). Samples were analyzed on TopCounter™ (Packard). The IC₅₀ was calculated using (one site binding competition analysis) GraphPad Prism5 as a measure of receptor affinity.
Membranes were prepared in the following way; the cells were rinsed with PBS and incubated with Versene for approximately 5 min before harvesting. The cells were flushed with PBS and the cell-suspension was centrifuged for 5 min at 1000 rpm. Cells were homogenized (Ultrathurrax) in a buffer containing 20 mM Na-HEPES and 10 mM EDTA (pH 7.4) and centrifuged at 20.000 rpm for 15 min. The resulting pellet was resuspended, homogenized and centrifuged (20.000 rpm, 15 min) in a buffer containing 20 mM Na-HEPES and 0.1 mM EDTA (pH 7.4, buffer 2). The resulting pellet was resuspended in buffer 2 and protein concentration was measured (BCA protein Assay, Pierce). The homogenate was kept cold during the whole procedure. The membranes were kept at −80° C. until use. Assay was performed in a 384 well Optiplate (PerkinElmer) in a total volume of 40 ul. Membranes were mixed with SPA beads.

Assay [3] addresses T3, rat amylin receptor (rat calcitonin receptor + rat RAMP 3) (rat, UniProt P32214 25-516; Q9JJ73 23-147).
T3 construct: whole, on cells; Used as membranes prepared from the transfected cells; also called rAmylin-R; rat amylin 3(a) receptor
T3 sequence (looked up) 1: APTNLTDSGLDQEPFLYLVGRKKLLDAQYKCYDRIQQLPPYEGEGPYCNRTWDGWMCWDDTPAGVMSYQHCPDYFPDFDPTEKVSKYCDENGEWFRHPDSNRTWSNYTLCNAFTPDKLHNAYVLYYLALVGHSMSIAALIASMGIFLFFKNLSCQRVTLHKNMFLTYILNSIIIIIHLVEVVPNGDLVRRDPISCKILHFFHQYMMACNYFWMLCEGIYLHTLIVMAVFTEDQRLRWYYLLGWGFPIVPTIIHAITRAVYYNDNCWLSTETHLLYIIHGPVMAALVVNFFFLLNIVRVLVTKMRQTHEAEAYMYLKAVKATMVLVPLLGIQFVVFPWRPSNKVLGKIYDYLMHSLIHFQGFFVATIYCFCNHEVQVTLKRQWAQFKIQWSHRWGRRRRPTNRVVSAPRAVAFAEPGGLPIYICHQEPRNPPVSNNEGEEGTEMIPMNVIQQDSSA
T3 sequence (looked up) 2: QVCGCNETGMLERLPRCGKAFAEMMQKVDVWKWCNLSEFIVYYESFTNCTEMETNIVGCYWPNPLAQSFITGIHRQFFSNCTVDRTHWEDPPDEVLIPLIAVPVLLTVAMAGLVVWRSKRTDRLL
As to the kind of experiment: SPA competition with 125I-rat amylin, membranes of BHK cells with rat calcitonin receptor + rat RAMP3 (Assay VI).

The target of assay [4] is T1, rat calcitonin receptor. The assay can be described thus: SPA competition with 125I-calcitonin, membranes of BHK cells with rat calcitonin receptor (Assay VIII).

B1: N^α1-[(4S)-4-carboxy-4-(19-carboxynonadecanoylamino)butanoyl]-[Glu14,Arg17,Pro21,Pro25,Pro28,Pro29,Pro37]-h-amylin (peptide)
peptide: {C20 diacid-γGlu}-KCNTATCATQRLAEFLRHSSPNFGPILPPTNVGSNTP-NH2
modifications: disulfide 2-7
SMILES: CC[C@H](C)[C@H](NC(=O)[C@@H]1CCCN1C(=O)CNC(=O)[C@H](Cc1ccccc1)NC(=O)[C@H](CC(N)=O)NC(=O)[C@@H]1CCCN1C(=O)[C@H](CO)NC(=O)[C@H](CO)NC(=O)[C@H](Cc1c[nH]cn1)NC(=O)[C@H](CCCNC(=N)N)NC(=O)[C@H](CC(C)C)NC(=O)[C@H](Cc1ccccc1)NC(=O)[C@H](CCC(=O)O)NC(=O)[C@H](C)NC(=O)[C@H](CC(C)C)NC(=O)[C@H](CCCNC(=N)N)NC(=O)[C@H](CCC(N)=O)NC(=O)[C@@H](NC(=O)[C@H](C)NC(=O)[C@@H]1CSSC[C@H](NC(=O)[C@H](CCCCN)NC(=O)CC[C@H](NC(=O)CCCCCCCCCCCCCCCCCCC(=O)O)C(=O)O)C(=O)N[C@@H](CC(N)=O)C(=O)N[C@@H]([C@@H](C)O)C(=O)N[C@@H](C)C(=O)N[C@@H]([C@@H](C)O)C(=O)N1)[C@@H](C)O)C(=O)N[C@@H](CC(C)C)C(=O)N1CCC[C@H]1C(=O)N1CCC[C@H]1C(=O)N[C@H](C(=O)N[C@@H](CC(N)=O)C(=O)N[C@H](C(=O)NCC(=O)N[C@@H](CO)C(=O)N[C@@H](CC(N)=O)C(=O)N[C@H](C(=O)N1CCC[C@H]1C(N)=O)[C@@H](C)O)C(C)C)[C@@H](C)O
notes: Derivative of human amylin; also called compound 4
For B1, the “Ratio rCT/rAmylin binding” value with rat calcitonin receptor [1] came to 3.1. Further, the “Ratio hCT/hAmylin binding” value in assay [2] was 2.1. Also, the IC50 (in general, the point on the concentration scale where inhibition reaches its midpoint) in assay [3] was found to be 1.3 nM; with rat calcitonin receptor [4], 4.05 nM.

B2: N^α1-[(4S)-4-carboxy-4-(19-carboxynonadecanoylamino)butanoyl]-[Glu14,Arg17,Pro21,Pro25,Pro28,Pro29]-h-amylin (peptide)
peptide: {C20 diacid-γGlu}-KCNTATCATQRLAEFLRHSSPNFGPILPPTNVGSNTY-NH2
modifications: disulfide 2-7
SMILES: CC[C@H](C)[C@H](NC(=O)[C@@H]1CCCN1C(=O)CNC(=O)[C@H](Cc1ccccc1)NC(=O)[C@H](CC(N)=O)NC(=O)[C@@H]1CCCN1C(=O)[C@H](CO)NC(=O)[C@H](CO)NC(=O)[C@H](Cc1c[nH]cn1)NC(=O)[C@H](CCCNC(=N)N)NC(=O)[C@H](CC(C)C)NC(=O)[C@H](Cc1ccccc1)NC(=O)[C@H](CCC(=O)O)NC(=O)[C@H](C)NC(=O)[C@H](CC(C)C)NC(=O)[C@H](CCCNC(=N)N)NC(=O)[C@H](CCC(N)=O)NC(=O)[C@@H](NC(=O)[C@H](C)NC(=O)[C@@H]1CSSC[C@H](NC(=O)[C@H](CCCCN)NC(=O)CC[C@H](NC(=O)CCCCCCCCCCCCCCCCCCC(=O)O)C(=O)O)C(=O)N[C@@H](CC(N)=O)C(=O)N[C@@H]([C@@H](C)O)C(=O)N[C@@H](C)C(=O)N[C@@H]([C@@H](C)O)C(=O)N1)[C@@H](C)O)C(=O)N[C@@H](CC(C)C)C(=O)N1CCC[C@H]1C(=O)N1CCC[C@H]1C(=O)N[C@H](C(=O)N[C@@H](CC(N)=O)C(=O)N[C@H](C(=O)NCC(=O)N[C@@H](CO)C(=O)N[C@@H](CC(N)=O)C(=O)N[C@H](C(=O)N[C@@H](Cc1ccc(O)cc1)C(N)=O)[C@@H](C)O)C(C)C)[C@@H](C)O
notes: Derivative of human amylin; also called compound 6
On to B2, for which the “Ratio rCT/rAmylin binding” value in the assay with rat calcitonin receptor [1] is 21.7. Further, the “Ratio hCT/hAmylin binding” value in assay [2] is 20. Also, the IC50 in assay [3] turned out to be 2.37 nM; with rat calcitonin receptor [4], 51.5 nM.

B3: N^α1-[(4S)-4-carboxy-4-(19-carboxynonadecanoylamino)butanoyl]-[Glu14,Arg17,Pro21,Pro26,Pro37]-h-amylin (peptide)
peptide: {C20 diacid-γGlu}-KCNTATCATQRLAEFLRHSSPNFGAPLSSTNVGSNTP-NH2
modifications: disulfide 2-7
SMILES: CC(C)C[C@H](NC(=O)[C@H](CCCNC(=N)N)NC(=O)[C@H](CCC(N)=O)NC(=O)[C@@H](NC(=O)[C@H](C)NC(=O)[C@@H]1CSSC[C@H](NC(=O)[C@H](CCCCN)NC(=O)CC[C@H](NC(=O)CCCCCCCCCCCCCCCCCCC(=O)O)C(=O)O)C(=O)N[C@@H](CC(N)=O)C(=O)N[C@@H]([C@@H](C)O)C(=O)N[C@@H](C)C(=O)N[C@@H]([C@@H](C)O)C(=O)N1)[C@@H](C)O)C(=O)N[C@@H](C)C(=O)N[C@@H](CCC(=O)O)C(=O)N[C@@H](Cc1ccccc1)C(=O)N[C@@H](CC(C)C)C(=O)N[C@@H](CCCNC(=N)N)C(=O)N[C@@H](Cc1c[nH]cn1)C(=O)N[C@@H](CO)C(=O)N[C@@H](CO)C(=O)N1CCC[C@H]1C(=O)N[C@@H](CC(N)=O)C(=O)N[C@@H](Cc1ccccc1)C(=O)NCC(=O)N[C@@H](C)C(=O)N1CCC[C@H]1C(=O)N[C@@H](CC(C)C)C(=O)N[C@@H](CO)C(=O)N[C@@H](CO)C(=O)N[C@H](C(=O)N[C@@H](CC(N)=O)C(=O)N[C@H](C(=O)NCC(=O)N[C@@H](CO)C(=O)N[C@@H](CC(N)=O)C(=O)N[C@H](C(=O)N1CCC[C@H]1C(N)=O)[C@@H](C)O)C(C)C)[C@@H](C)O
notes: Derivative of human amylin; also called compound 5
B3: the “Ratio rCT/rAmylin binding” value with rat calcitonin receptor [1] is 3.6. For the same molecule, the “Ratio hCT/hAmylin binding” value in assay [2] worked out at 1.4. The results for the IC50 (in assay [3]; with rat calcitonin receptor [4]) were 1.3 nM and 4.65 nM, respectively.

B4: N^α1-[(4S)-4-carboxy-4-(19-carboxynonadecanoylamino)butanoyl]-[Glu14,Arg17,Pro21,Pro26]-h-amylin (peptide)
peptide: {C20 diacid-γGlu}-KCNTATCATQRLAEFLRHSSPNFGAPLSSTNVGSNTY-NH2
modifications: disulfide 2-7
SMILES: CC(C)C[C@H](NC(=O)[C@H](CCCNC(=N)N)NC(=O)[C@H](CCC(N)=O)NC(=O)[C@@H](NC(=O)[C@H](C)NC(=O)[C@@H]1CSSC[C@H](NC(=O)[C@H](CCCCN)NC(=O)CC[C@H](NC(=O)CCCCCCCCCCCCCCCCCCC(=O)O)C(=O)O)C(=O)N[C@@H](CC(N)=O)C(=O)N[C@@H]([C@@H](C)O)C(=O)N[C@@H](C)C(=O)N[C@@H]([C@@H](C)O)C(=O)N1)[C@@H](C)O)C(=O)N[C@@H](C)C(=O)N[C@@H](CCC(=O)O)C(=O)N[C@@H](Cc1ccccc1)C(=O)N[C@@H](CC(C)C)C(=O)N[C@@H](CCCNC(=N)N)C(=O)N[C@@H](Cc1c[nH]cn1)C(=O)N[C@@H](CO)C(=O)N[C@@H](CO)C(=O)N1CCC[C@H]1C(=O)N[C@@H](CC(N)=O)C(=O)N[C@@H](Cc1ccccc1)C(=O)NCC(=O)N[C@@H](C)C(=O)N1CCC[C@H]1C(=O)N[C@@H](CC(C)C)C(=O)N[C@@H](CO)C(=O)N[C@@H](CO)C(=O)N[C@H](C(=O)N[C@@H](CC(N)=O)C(=O)N[C@H](C(=O)NCC(=O)N[C@@H](CO)C(=O)N[C@@H](CC(N)=O)C(=O)N[C@H](C(=O)N[C@@H](Cc1ccc(O)cc1)C(N)=O)[C@@H](C)O)C(C)C)[C@@H](C)O
notes: Derivative of human amylin; also called compound 7
In the case of B4, in the assay with rat calcitonin receptor [1], the “Ratio rCT/rAmylin binding” value was 42. In addition, the “Ratio hCT/hAmylin binding” value in assay [2] is 16.5. Besides, the figures for the IC50 (in assay [3]; with rat calcitonin receptor [4]) were 1.12 nM and 47.2 nM, respectively.
